Results as given in article PMC7494283 (Cell, 2020).

B1: S304 mAb (IgG1) (antibody, V domains shown)
VH: EVQLVESGGGLVQPGGSLRLSCAASGFTFSSYDMHWVRQTTGKGLEWVSTIGTAGDTYYPDSVKGRFTISREDAKNSLYLQMNSLRAGDTAVYYCARGDSSGYYYYFDYWGQGTLLTVSS
VL: DIEMTQSPSSLSAAVGDRVTITCRASQSIGSYLNWYQQKPGKAPKLLIYAASSLQSGVPSRFSGSGSGTDFTLTISSLQPEDFAIYYCQQSYVSPTYTFGPGTKVDIK
B2: S2A4 mAb (IgG1) (antibody, V domains shown)
VH: EVQLVESGGGLVQPGGSLRLSCAASGFTFSSYWMNWVRQAPGKGLEWVANIKQDGSEKYYVDSVKGRFTISRDNAKNSLFLQMNSLRAEDTAVYYCARVWWLRGSFDYWGQGTLVTVSS
VL: NFMLTQPHSVSESPGKTVTISCTGSSGSIASNYVQWYQQRPGSAPTTVIYEDNQRPSGVPDRFSGSIDSSSNSASLTISGLKTEDEADYYCQSYDSSNHVVFGGGTKLTVL
B3: S2H14 mAb (IgG1) (antibody, V domains shown)
VH: not shown
VL: NFMLTQPHSVSESPGKTVTISCTRSSGSIASNYVQWYQQRPGSSPTTVIYEDNQRPSGVPDRFSGSIDSSSNSASLTISGLKTEDEADYYCQSYDSSNQVFGGGTKLTVL

Biological target: SARS-CoV RBD (SARS-CoV (human), isolate , UniProt P59594)
Test: ELISA

Binder | binding result
B1 | binds
B2 | no binding
B3 | no binding
